According to patent US20060217891A1:
Values belong to the binder of their own block, whether it stands above or below them. Ends that are not written are not given here.

Target: Fas (Receptor) on the Fas-expressing human ovarian cancer cell line NOS4 (human) (UniProt P25445)
Test: cell-based or functional assay

Sequence of Fas (Receptor) on the Fas-expressing human ovarian cancer cell line NOS4 (human) (P25445 26-335): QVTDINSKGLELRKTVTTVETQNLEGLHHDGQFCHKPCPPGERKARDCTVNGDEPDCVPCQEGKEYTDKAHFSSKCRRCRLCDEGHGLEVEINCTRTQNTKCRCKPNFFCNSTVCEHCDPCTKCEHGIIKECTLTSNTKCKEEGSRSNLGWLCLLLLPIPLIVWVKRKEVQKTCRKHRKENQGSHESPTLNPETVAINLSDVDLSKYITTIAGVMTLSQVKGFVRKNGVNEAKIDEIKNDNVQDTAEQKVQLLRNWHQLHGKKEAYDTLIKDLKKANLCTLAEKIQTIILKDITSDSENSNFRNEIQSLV

Apoptosis induction Activity (%) of NOS4 cells at 0.01 µg/ml: 7% | Apoptosis induction Activity (%) of NOS4 cells at 0.03 µg/ml: 15% | Apoptosis induction Activity (%) of NOS4 cells at 0.1 µg/ml: 48% | Apoptosis induction Activity (%) of NOS4 cells at 0.3 µg/ml: 67% | Apoptosis induction Activity (%) of NOS4 cells at 1 µg/ml: 78%
B1: (FLLP-1)4-MAP8 (four WEWT peptides bound to MAP-8) (peptide, part only)
chain: WEWT
modifications: also: tetramer: each copy bound to one of 4 branches of MAP-8, remaining four amino groups of MAP-8 protected

apoptosis induction potential relative to the monomer FRP-2: 30 times | apoptosis of NOS4 cells, same method as Test Example 1, at 5 mg/ml as printed: 50%
B2: Fas complementary peptide tetramer [(FRP-2)4-MAP] (peptide, part only)
chain: EPPMTFISIHTMCH
modifications: also: tetramer: each copy bound to one of four branches of a lysine polymer (MAP)
